Assay results from patent EP0672680A1 (KYOWA HAKKO KOGYO CO., LTD., dated 1995).
Ends that are not written are not given here.

Key:
[1] = target: T1, protein-farnesyltransferase derived from bovine brains (bovine, UniProt P29702 2-375; P49355 1-437); assay: cell-based or functional assay
[2] = target: T1, protein-farnesyltransferase derived …; assay: cell-based or functional assay; remark: listed apart in the source

B1: compound (3) (peptide)
peptide: VYAVTGRGDSPASSGCVLS-OH
modifications: not fully specified (bridges); also: cyclic amide Gly alpha-amino to Asp side chain, places unclear
- IC50, protein-farnesyltransferase-inhibiting activity (transfer of [3H]-farnesyl diphosphate to v-Ki-Ras p21) [1]: 0.56 µM
- IC50, protein-farnesyltransferase inhibiting activity in SPA enzyme assay kit (intake of [3H]-farnesyl diphosphate by biotin-lamin-B peptide) [2]: 0.42 µM

B2: compound (4) (peptide)
peptide: VYAVTGRGDSPAFGGRIDRI-OH
modifications: not fully specified (bridges); also: cyclic amide Gly alpha-amino to Asp side chain, places unclear
- IC50, protein-farnesyltransferase-inhibiting activity (transfer of [3H]-farnesyl diphosphate to v-Ki-Ras p21) [1]: 9 µM

B3: compound (5) (peptide)
peptide: VYAVTGRGDSPAAFGGRIDRIGAA-OH
modifications: not fully specified (bridges); also: cyclic amide Gly alpha-amino to Asp side chain, places unclear
- IC50, protein-farnesyltransferase-inhibiting activity (transfer of [3H]-farnesyl diphosphate to v-Ki-Ras p21) [1]: 19 µM
